System: lac repressor (LacI)
Assay: SFM imaging
Details: streptavidin bound, SFM: 7.5 nM LacI, about 30 min incubation, 100 uM NTPs for 60 s, EDTA quench, poly-L-ornithine-coated mica, buffer, salt, pH and temperature not in the …

Substance	binding signal (% looped molecules) (LacI, with transcription (NTP), downstream-end biotin)	binding signal (% looped molecules) (LacI, without transcription, downstream-end biotin)	binding signal (% looped molecules) (7.5 nM LacI, with transcription (NTP), 3'/downstream-end biotin)	binding signal (% operator occupancy) (7.5 nM LacI, without NTP (drops about 20% with transcription), 3'/downstream-end biotin)	binding signal (% looped molecules) (7.5 nM LacI, without transcription, 3'/downstream-end biotin)
O2-400-O1 SFM template	14	12	–	–	–
Os-400-O1 SFM template	–	–	50	> 90	34

Reference: publication PMC5477534
